Test results reported in patent US20140213513A1 (Sanofi, priority 2012, published 2014).
*1 amine or outer side, *2 acyl side, *3 side chain or, on linkers, in order; H or OH if unused. Where no end group is shown, it is not given here. Side-chain parts run from the residue outwards. [ ]: non-standard residue; d: D form. The star is where a group is joined. γGlu = O=C(O)[C@H](CCC(=O)[*:2])N[*:1]; Stearoyl = CCCCCCCCCCCCCCCCCC(=O)*; Palmitoyl = CCCCCCCCCCCCCCCC(=O)*; Aib = CC(C)(N)C(=O)O

B1: exendin-4 peptide analogue SEQ ID NO: 42 (peptide)
peptide: Y[Aib]EGTFTSDLSIQK([γGlu-Stearoyl])ESKAAQEFIEWLKAGGPSSGAPPPS-NH2
modifications: N-terminus assumed
SMILES: CCCCCCCCCCCCCCCCCC(=O)N[C@@H](CCC(=O)NCCCC[C@H](NC(=O)[C@H](CCC(N)=O)NC(=O)[C@@H](NC(=O)[C@H](CO)NC(=O)[C@H](CC(C)C)NC(=O)[C@H](CC(=O)O)NC(=O)[C@H](CO)NC(=O)[C@@H](NC(=O)[C@H](Cc1ccccc1)NC(=O)[C@@H](NC(=O)CNC(=O)[C@H](CCC(=O)O)NC(=O)C(C)(C)NC(=O)[C@@H](N)Cc1ccc(O)cc1)[C@@H](C)O)[C@@H](C)O)[C@@H](C)CC)C(=O)N[C@@H](CCC(=O)O)C(=O)N[C@@H](CO)C(=O)N[C@@H](CCCCN)C(=O)N[C@@H](C)C(=O)N[C@@H](C)C(=O)N[C@@H](CCC(N)=O)C(=O)N[C@@H](CCC(=O)O)C(=O)N[C@@H](Cc1ccccc1)C(=O)N[C@H](C(=O)N[C@@H](CCC(=O)O)C(=O)N[C@@H](Cc1c[nH]c2ccccc12)C(=O)N[C@@H](CC(C)C)C(=O)N[C@@H](CCCCN)C(=O)N[C@@H](C)C(=O)NCC(=O)NCC(=O)N1CCC[C@H]1C(=O)N[C@@H](CO)C(=O)N[C@@H](CO)C(=O)NCC(=O)N[C@@H](C)C(=O)N1CCC[C@H]1C(=O)N1CCC[C@H]1C(=O)N1CCC[C@H]1C(=O)N[C@@H](CO)C(N)=O)[C@@H](C)CC)C(=O)O
B2: exendin-4 peptide analogue SEQ ID NO: 43 (peptide)
peptide: Y[Aib]QGTFTSDLSIQK([γGlu-Palmitoyl])DSRAAQDFIEWLKKGGPSSGAPPPS-NH2
modifications: N-terminus assumed
SMILES: CCCCCCCCCCCCCCCC(=O)N[C@@H](CCC(=O)NCCCC[C@H](NC(=O)[C@H](CCC(N)=O)NC(=O)[C@@H](NC(=O)[C@H](CO)NC(=O)[C@H](CC(C)C)NC(=O)[C@H](CC(=O)O)NC(=O)[C@H](CO)NC(=O)[C@@H](NC(=O)[C@H](Cc1ccccc1)NC(=O)[C@@H](NC(=O)CNC(=O)[C@H](CCC(N)=O)NC(=O)C(C)(C)NC(=O)[C@@H](N)Cc1ccc(O)cc1)[C@@H](C)O)[C@@H](C)O)[C@@H](C)CC)C(=O)N[C@@H](CC(=O)O)C(=O)N[C@@H](CO)C(=O)N[C@@H](CCCNC(=N)N)C(=O)N[C@@H](C)C(=O)N[C@@H](C)C(=O)N[C@@H](CCC(N)=O)C(=O)N[C@@H](CC(=O)O)C(=O)N[C@@H](Cc1ccccc1)C(=O)N[C@H](C(=O)N[C@@H](CCC(=O)O)C(=O)N[C@@H](Cc1c[nH]c2ccccc12)C(=O)N[C@@H](CC(C)C)C(=O)N[C@@H](CCCCN)C(=O)N[C@@H](CCCCN)C(=O)NCC(=O)NCC(=O)N1CCC[C@H]1C(=O)N[C@@H](CO)C(=O)N[C@@H](CO)C(=O)NCC(=O)N[C@@H](C)C(=O)N1CCC[C@H]1C(=O)N1CCC[C@H]1C(=O)N1CCC[C@H]1C(=O)N[C@@H](CO)C(N)=O)[C@@H](C)CC)C(=O)O
B3: exendin-4 peptide analogue SEQ ID NO: 9 (peptide)
peptide: Y[Aib]QGTFTSDLSIQK([γGlu-Palmitoyl])EK[Aib]AA[Aib]EFIEWLKNTGPSSGAPPPS-NH2
modifications: N-terminus assumed
SMILES: CCCCCCCCCCCCCCCC(=O)N[C@@H](CCC(=O)NCCCC[C@H](NC(=O)[C@H](CCC(N)=O)NC(=O)[C@@H](NC(=O)[C@H](CO)NC(=O)[C@H](CC(C)C)NC(=O)[C@H](CC(=O)O)NC(=O)[C@H](CO)NC(=O)[C@@H](NC(=O)[C@H](Cc1ccccc1)NC(=O)[C@@H](NC(=O)CNC(=O)[C@H](CCC(N)=O)NC(=O)C(C)(C)NC(=O)[C@@H](N)Cc1ccc(O)cc1)[C@@H](C)O)[C@@H](C)O)[C@@H](C)CC)C(=O)N[C@@H](CCC(=O)O)C(=O)N[C@@H](CCCCN)C(=O)NC(C)(C)C(=O)N[C@@H](C)C(=O)N[C@@H](C)C(=O)NC(C)(C)C(=O)N[C@@H](CCC(=O)O)C(=O)N[C@@H](Cc1ccccc1)C(=O)N[C@H](C(=O)N[C@@H](CCC(=O)O)C(=O)N[C@@H](Cc1c[nH]c2ccccc12)C(=O)N[C@@H](CC(C)C)C(=O)N[C@@H](CCCCN)C(=O)N[C@@H](CC(N)=O)C(=O)N[C@H](C(=O)NCC(=O)N1CCC[C@H]1C(=O)N[C@@H](CO)C(=O)N[C@@H](CO)C(=O)NCC(=O)N[C@@H](C)C(=O)N1CCC[C@H]1C(=O)N1CCC[C@H]1C(=O)N1CCC[C@H]1C(=O)N[C@@H](CO)C(N)=O)[C@@H](C)O)[C@@H](C)CC)C(=O)O
B4: exendin-4 peptide analogue SEQ ID NO: 44 (peptide)
peptide: Y[Aib]QGTFTSDLSIQK([γGlu-Palmitoyl])DKRAAQDFIEWLKKGGPSSGAPPPS-NH2
modifications: N-terminus assumed
SMILES: CCCCCCCCCCCCCCCC(=O)N[C@@H](CCC(=O)NCCCC[C@H](NC(=O)[C@H](CCC(N)=O)NC(=O)[C@@H](NC(=O)[C@H](CO)NC(=O)[C@H](CC(C)C)NC(=O)[C@H](CC(=O)O)NC(=O)[C@H](CO)NC(=O)[C@@H](NC(=O)[C@H](Cc1ccccc1)NC(=O)[C@@H](NC(=O)CNC(=O)[C@H](CCC(N)=O)NC(=O)C(C)(C)NC(=O)[C@@H](N)Cc1ccc(O)cc1)[C@@H](C)O)[C@@H](C)O)[C@@H](C)CC)C(=O)N[C@@H](CC(=O)O)C(=O)N[C@@H](CCCCN)C(=O)N[C@@H](CCCNC(=N)N)C(=O)N[C@@H](C)C(=O)N[C@@H](C)C(=O)N[C@@H](CCC(N)=O)C(=O)N[C@@H](CC(=O)O)C(=O)N[C@@H](Cc1ccccc1)C(=O)N[C@H](C(=O)N[C@@H](CCC(=O)O)C(=O)N[C@@H](Cc1c[nH]c2ccccc12)C(=O)N[C@@H](CC(C)C)C(=O)N[C@@H](CCCCN)C(=O)N[C@@H](CCCCN)C(=O)NCC(=O)NCC(=O)N1CCC[C@H]1C(=O)N[C@@H](CO)C(=O)N[C@@H](CO)C(=O)NCC(=O)N[C@@H](C)C(=O)N1CCC[C@H]1C(=O)N1CCC[C@H]1C(=O)N1CCC[C@H]1C(=O)N[C@@H](CO)C(N)=O)[C@@H](C)CC)C(=O)O

target: T1, human GIP receptor (human, UniProt P48546 22-466); test: cell-based or functional assay
T1 sequence (looked up): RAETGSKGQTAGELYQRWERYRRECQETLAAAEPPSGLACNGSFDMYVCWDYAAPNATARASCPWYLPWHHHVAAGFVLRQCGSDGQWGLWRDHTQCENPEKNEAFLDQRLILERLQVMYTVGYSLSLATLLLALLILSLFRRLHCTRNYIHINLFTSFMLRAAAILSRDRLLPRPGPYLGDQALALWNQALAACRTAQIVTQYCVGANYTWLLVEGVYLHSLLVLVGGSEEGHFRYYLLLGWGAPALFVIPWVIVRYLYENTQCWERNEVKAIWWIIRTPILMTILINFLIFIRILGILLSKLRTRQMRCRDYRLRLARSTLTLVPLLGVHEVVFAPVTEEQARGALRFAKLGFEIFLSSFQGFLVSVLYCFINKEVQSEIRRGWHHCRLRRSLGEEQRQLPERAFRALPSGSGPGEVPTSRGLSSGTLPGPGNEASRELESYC

Binder | EC50 hGIP R
B1 | 0.0129 nM
B2 | 0.0482 nM
B3 | 0.009 nM
B4 | 0.0255 nM

target: human glucagon receptor (human, UniProt P47871 26-477); test: cell-based or functional assay
Sequence (P47871 26-477): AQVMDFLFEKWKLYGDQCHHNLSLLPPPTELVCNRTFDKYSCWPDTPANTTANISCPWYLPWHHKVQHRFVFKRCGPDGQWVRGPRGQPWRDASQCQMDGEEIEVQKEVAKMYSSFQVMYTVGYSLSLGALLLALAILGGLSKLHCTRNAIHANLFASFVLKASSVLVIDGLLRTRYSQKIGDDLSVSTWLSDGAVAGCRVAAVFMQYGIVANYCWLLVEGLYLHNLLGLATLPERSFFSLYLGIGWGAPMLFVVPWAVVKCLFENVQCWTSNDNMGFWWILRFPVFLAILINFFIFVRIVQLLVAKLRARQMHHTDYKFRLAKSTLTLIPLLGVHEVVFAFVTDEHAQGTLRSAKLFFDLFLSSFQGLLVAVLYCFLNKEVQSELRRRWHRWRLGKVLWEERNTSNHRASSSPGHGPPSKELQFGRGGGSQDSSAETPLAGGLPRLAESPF

Binder | EC50 hGLUC R
B1 | 8.47 nM
B2 | 0.114 nM
B3 | 0.445 nM
B4 | 0.0552 nM

target: human GLP-1 receptor (human, UniProt P43220 24-463); test: cell-based or functional assay

Binder | EC50 hGLP-1 R
B1 | 0.0062 nM
B2 | 0.007 nM
B3 | 0.0055 nM
B4 | 0.0097 nM
